Source: the DeepSol protein solubility set

test: soluble on expression in E. coli; label from the status in PepcDB or PDB records

Sequence | soluble on expression in E. coli
MNNNDLVAKLWKLCDNLRDGGVSYQNYVNELASLLFLKMCKETGQEADYLPEGYRWDDLKSRIGQDQMQFYRNLLVQLGSDEKKLVQAVFHNVSTTIEQPKQLTELVSYMDALDWYNGNHGKSRDDFGDMYEGLLQKNANETKSGAGQYFTPRPLIKTIIHLLKPQPREVVQDPAAGTAGFLIEADRYVKSQTNDLDDLDGDTQDFQIHRAFIGLELVPGTRRLALMNCLLHDIEGNLDHGGAIRLGNTLGSDGENLPKAHIVATNPPFGSAAGTNITRTFVHPTSNKQLCFMQHIIETLHPGGRAAVVVPDNVLFEGGKGTDIRRDLMDKCHLHTILRLPTGIFYAQGVKTNVLFFTKGTVTNPHQDKNCTDDVWVYDLRTNMPSFGKRTPFTEQHLQPFETVYGEDPHGLSPREEGEWSFNAEESEVADSEENKNTDQHQATSRWRKFSREWIRSAKSDSLDISWLKDKDSIDADSLPEPDVLAAEAMGELVQALGELDALMRELGAGDEADAQRQLLNEAFGEVKA | not soluble
MGSDKIHHHHHHMIFASDLDQTLIYSRKSFRAHIEDNSIQLIETLDGKEISFITYKTITLLIKLQLHSYFIPVTTRTIEQFQRITLFQNEIIPEYAITSNGGNILHNGKQDVTWNKEIKKRISVECIERNDILKEFEQIAHKDWVISQKTADDLFHYCIIKRENIPYDELSSFTSWLDKQGWNHSLQGRKLYFVPKPINKWDAVQYIQEILQMDTIITAGDSLLDLCMLEKANYAFAPLHGELGATYNHLQPHIVKTDAIGIYAAEEIVSKSLQIIHSSSPTS | not soluble
MLSTVFLLATLAASAAADGYSCARNTLINPPQDLSKPYYYPETWRENMEPPQYAPNQKCNWKINVPQGMYATVIFYKKTKYEIGIQCAYPGKDLEYINDYEQSPYIFTSPQFQVDLKVGDKPGAFSFKVVWSKYPPGSAMNIELDGIHSISGVASSFYTTYTAINQVMIVGFSVPDVDTNLLRQSAIYDGDSVNAKFLGNLFDALEGQIVSTGNKLTIYTFGLENQVDNTLFMGLDTKAAGDIEQYTGLNCPVDRTRGCSIILHSYFYATAEARISRQPDYLMLPDSFPYNATLKIYGETLQDSSLFAAVNKSNYQTMFPMKVTNSLKIYHLDHDIVSIDVTNNADEAKWSTVYDGRNIKVQSMDYGRTSFYQDTMETFTTEPNTQMYFKFNVKYFDVNGPTSLAIKVYNNAKIVYSETYTATNLPTPYNVRVYGDKMDINYQTFGNYTQGFEVNIVTTKNG | not soluble
MGSDKIHHHHHHMIRLSNENTIFFMDKENVPIASCQSGDTVIFETKDCFSDQITNEEQALTSIDFNRVNPATGPLYVEGARRGDMLEIEILDIKVGKQGVMTAAPGLGALGESLNSPTTKLFPIEGDDVVYSTGLRLPLQPMIGVIGTAPPGEPINNGTPGPHGGNLDTKDIKPGTTVYLPVEVDGALLALGDLHAAMGDGEILICGVEIAGTVTLKVNVKKERMFPLPALKTDTHFMTIASAETLDAAAVQATKNMATFLANRTALSIEEAGMLLSGAGDLYVSQIVNPLKTARFSLALHYFEKLGVDLCN | not soluble
CPRMGHVFPLETRPYNQGSRLTAYELVYDKIPSTLITDSSIAYRIRTSPIPIKAAFVGADRIVRNGDTANKIGTLQLAVICKQFGIKFFVVAPKTTIDNVTETGDDIIVEERNPEEFKVVTGTVINPENGSLILNESGEPITGKVGIAPLEINVWNPAFDITPHELIDGIITEEGVFTKNSSGEFQLESLF | soluble
MSSSQELRSNFYREKNLMETVFDALKAMGKATSIELAARLDISREEVLNELWELKKAGFVDKSAYTWRVADNNVQQEQPAQAELPEEITTATVAKISECDLTATIEQRGPQTADELATLFGTTSRKVASTLAMAISKGRLIRVNQGGKFRYCIPGDNLPAEPKAASVSPLWLSASSSACHGVLIITVITPSPTKNSATKMPENLEHHHHHH | not soluble
MVQAFEPYIALNSHVRKPVIHISLNPSPKDILSKEQMTVLAQEFMEKFGYGNQPYIVWLHEDIDRKHMHIISVRINEKGEKIDHNREAIRAQNICRDMEVKYGLHSTLGEHSERELLSLQKVDYPKGDVKAQVKHTARTLLECYNCHSLAEYNTLLNLYNVTVYEVRGSVDGKEYYGIMYGALDDDGQQAGTPFKSSKFGKVFGYEALQKKFAATAEKVLEHHHHHH | not soluble
MVASYEIEFIGEGEVAGILREALRTDSRVESFEEFERGFKLRLVGAKRRITIVCKGSVQSDDCLLIVNARKMPENGGIALNADKIAERCGSKPEIAMLGAIAKLGVVDLKRLMSVIYREMGYGDVLAVKKGFEATNI | not soluble
